Results: the nanobody polyreactivity screen of Harvey et al. (2022)

Assay: yeast display, Sf9 membrane polyspecificity reagent, FACS + sequencing; frameworks hold sequencing errors
Method in brief: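 Nanobodies came from a synthetic yeast display library in Saccharomyces cerevisiae BJ5465, induced with galactose for 36–48 hours and stained for 1 hour at 4 °C with 10% biotinylated, detergent-solubilized Sf9 membrane reagent. Cells were enriched on streptavidin microbeads and then FACS-sorted, with low and high (top ~1%) gates set on anti-HA fluorescence for expression and streptavidin fluorescence for reagent binding. Each polyreactivity label reflects the gate a clone came from. Genes were amplified by colony PCR, sequenced by MiSeq 2 × 250 and filtered by CDR length.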

Sequence	polyreactivity (PSR sort gate)
QVQLVESGGGLVQAGGSLRLSCAASGSIFYGNAMGWYRQAPGKERELVAAISESGGSTYYADSVKGRFTISRDNAKNTVYFQMNSLKPEDTAVYYCNSEAWGYYWWWGYDYWGHGTQVTVSS	low polyreactivity
QVQLVESGGGLVQAGGSLRLSCAASGSTFAANAMGWYRQAPGKERELVAAITSSGGSTYYADSVKGRFTISRDNAKNTVYLQMNSLKPEDTAVYYRNKDIERYVRIYDSWGQGTQVTVSS	low polyreactivity
QVQLVESGGGLVQAGGSLRLSCAASGFTFYSYAMGWYRQAPGKERELVAAISWSGTRTYYADSVKGRFTISRDIAKNTVYLQMNSLKPEDTAVYYCAARGYRYGYGYWGQGTQVTVSS	high polyreactivity
QVQLVETGGGLVQAGGSLRLSCAASGSTFGYYAMGWYRQAPGKERELVAAITSGGSTYYADSVKGRFTISRDNAKNSVFLQMNSLKPEDTAVYYCAATWYGFAYDYWGQGTQVTVSS	low polyreactivity
QVQLVESGGGLVQAGGSLRLSSAPSGIIIDYYAMGWYRQSPGKERELVAAITSGGSTSYADSEKGGFTISRDNAKKTVYLQMNSLKPEDTAVYYCNTEPSGYESGYWGQGTQVTVSS	low polyreactivity
QVQLVESGGGLVQAGGSLRLSCAASGSTFTANALGWYRQAPGKERELVAAITKSGGDTYYADSVKGRFTISRDNAKNTVYLQMNSLKPEDTAVYYCAAESSYFVALTQFYTVEFYYWGQGTQVTVSS	low polyreactivity
QVQLVESGGGLVQAGGSLRLSCAASGSIFTDNAMGWYRQAPGKERELVAAITGRGGNTYYADSVKGRFTISRDNAKNTVYLQMNSLKPEDTAVYYCAARIFRTRKPLGYWGQGTQVTVSS	high polyreactivity
QVQLVESGGGLVQAGGSLRLSCAASGRTFPRYAMGWYRQAPGKERELVADISFSGDSTSYADSVKGRFTISRDNAKNTVYLQMNSLKPEDTAVYYCNADYKSTVFRYSGSRNYWGQGTQVTVSS	low polyreactivity
QVQLVESGGGLVQAGGSLRLSCAASGFIFYFNAMGWYRQAPGKERELVAAISASGGRTYFADSVKGRFTISRDNAKNTVYLLMNSLKPEDTAVYYCAARGGSYYFRRYNYWGQGTQVNVSS	high polyreactivity
QVQLVESGGGLVQAGGSLRLSCAASGLIFVAYAMGWYRQAPGKERELVAAISRSGGSTYYADSVKGRFTISRDNAKNTVYLQMNRLKPEDTAVYFCAKYYGARHVDDDYWGQGTQVTVSS	high polyreactivity
QVQLVESGGGLVQAGGSLRLSCAASGFILVGYAMGWYRKAPGKERELVAAISSGDSTNYADSVKGRFTISRDNAKNSVYLQMNSLKPEDTAVYYCAARFIFWVYDYDYWGQGTQVTLSS	low polyreactivity
QVQLVESGGGLVQSGGSLRLSCAASGLTFKENVMGWYRQAPGKERELVAAISTGASTYYADSVKGRFTISRDNAKNTVYLQMNSLKPEDTAVYYCAKRVTRWYGYWGQGTQVTVSS	high polyreactivity
QVQLVESGGGLVQAGGSLRLSCAASGSTFYTYAMGWYRQAPGKERELVAAISYRGGSTYYADSVKGRFTISRDNAKNTVYLQMNSLKPEDTAVYYCNVDGVVVGTKRGGYDYWGQGTQVTVSS	low polyreactivity
QVQLVESGGGLVQAGGSLRLSCAASGRIFDANAMGWYRQAPGKERELVAAITYSGGRTYYADSVKGRFTISRDNAKNTVYLQMNSLKPEDTAVYYCAKRYAYIYDSWGQGTQVTVSS	low polyreactivity
QVQLVESGGGLVQAGGSLRLSCAASGRIFSPNAMGWYRQAHVKERELVADITFGDGSTYYADSVKGRFTISRDNAKNTVYLQMNSLIPEDTAVYYCAAELYYLYALYIYYPFYYWGQGTQVTVSS	high polyreactivity
QVQLVESVGGLVQAGGSLRLSCAASGSTFVPYAMGWYRQAPGKERELVAAITTSGGNTYYADSVKGRFTISRDNAKNTVYLQMNSLKPEDTAVYYCAADTYRSFDYWGQGTQVTVSS	low polyreactivity
QVQLVESGGGLVQAGGSLRLSCAASGRIFRYYDMGWYRQAPGKERELVAAITSDGSTKDADSVKGRFTISRDNAKNTVYLQMNSLKQEDTAVYYCNAEVLPTWYSPQLDYWGQGTQVTVSS	low polyreactivity
QVQLVESGGGLVQAGGSLRLSCAASGRIFAQNAMGWYRPAPGKERELVAAISWGGGGTYYADSVKGRFTISRDNAKNTVYLQMNSLKPEDTAVYYCAADSPGFGAWDRYEYWGQGTQVTVSS	low polyreactivity
QVQLVESGGGLVQAGGSLRLSCAPSGSIFGSYAMGWYRQAPGKERELVAAIRRSSASTYYADSVKGRFTISRDNAKNTVYLQMNSLKPEDTAVYYCATQSYSYYGYRYRYAAYDYWGQGTQVTVSS	high polyreactivity
QVQLVESGGGLVQAGGSLRLSCAASGFTFYKYVMGWYRQAPGKERELVAAITTSGGSTYFADSVKGRFTISRDNAKNSVYLEMNSLKPEDTAVYYCNARSLHTSEGDYWGQGSQVTVSS	low polyreactivity
QVQLVESGGGLVQAGGSLRLSCAASGRIFVLYAMGWYRQAPGKERELVAAISTSGGSTYYADSVKGRFTISRDNAKNTVYLQMNSLKPEDTAVYYCAADRSARFLFIQYYPYGMDYWGQGTQVTVSS	high polyreactivity
QVQLVESGGGLVQAGGSLRLICAASGFTIWWYAMGWYRQAPGKERELVATITSGGRTYYADSVKGRFTISRDNAKNTVYLQMNSLKPEDTAVYYCAAESEVGYVYDPMYYLGQGTQVTVSS	high polyreactivity

Sequence	polyreactivity (PSR sort gate)
QVQLVESGGGLVQAGGSLRLSCAASGSIFSGYVMGWYRQAPGKERELVAAITWSGGRTYYADSVKGRFTISRDNAKNTVYLQMNSLKPEDTAVYYCAKRKIKSSGYYYWGQGTQVTVSS	high polyreactivity
QGQLEESGGGLVQAGGSLRLSCAASGITFNDYTMGWYRQAPGKEMELVAVITKTGSRTYYADSVKGRFTISRDNAKNTVYLQMNSLKPEDTAVYYCNALYYIHYYQGYGYWGQGTQVTVSS	high polyreactivity
QVQLVESGGGIVQAGGSLRLSCAASGSTLDDYVMGWYRHAPGKDRQLVAAISSSGSGTYYADSVKGRFTISRDNAKNTVYLQMNSLKQEDTAVYYCAAAYSYSGYGYYTYDYWGLGTQVTVSS	low polyreactivity
QVQLVESGGGLVQAGGSLRLSCAASGRLLPIYAMGWYRQAAGKERELVATISWTSDSTYYADSVKGRFTISRDNAKNTVYLQMNSLKPEDTAFYYCAREYTYNYASTVIYDHWGQGTQVTVSS	low polyreactivity
QVQLVESGGGLVQAGGSLRLSCAASGFTFTRYAMGWYRQAPGKERELVAAISSSGGSTYYADSVKGRFTISRDNAKNTVYLQMNSLKPEDTAVYYCNKNWPRLYYYWGQGTQVTVSS	high polyreactivity
QVQLVESGGGLVQAGGSLRLSCAAYGGFFWYYTMGRYRQAPGKEREFVATITKRGGRTYYADSVKGRFTISRDNAKITVYLQMNSLKPEDTAVYFCNALGGPKSVRFDYWGQGTQVTVSS	high polyreactivity
QVQLVESGGGLVQAGGSLRLSCAASGFIFWFNAIGWSRQEPGKEREWVATISWSDTSTYYADSVKGRFTISRDNAKNTVYLQMNSLKPEDTAVYYCATDGRETWLPEYYWGQGTQVTVSS	low polyreactivity
QVQLVESGGGLVQAGGSLRLSCAASGSILPGNAMGWSRQAPGKERELVAAITYSGGSTYADSVKGRFTISRDNAKNTVYLQINSLKPEDTAVYYCNADFIDPSVYDYNYWGQGTQVTVSS	low polyreactivity
QVQLVESGGGLVQAGGSLRLSCAASGRIGKYAMGWYRQAPGKERELVAAITSGGSTTYADSVKGRITISRDNAKNTVYLQMNSLNPEDTAVYYCKALRRARYTRKGYEYWGQGTQVTVSS	high polyreactivity
QVQLVESGGGLVQAGGRLRLSCAASGSTFPYYAMGWYRQAPGKERELVAVITRGGSTYYADSVKGRFTISRDNAQNTVYLQMNSLKPEDTAVYYCAARYTPGFCYWGQGTQVTVSS	high polyreactivity
QVQLVESGGGLVQAGGSLRLSCAASGSIFDAYAMGWYRQATGKERELVAAITYSGGSTYYADSVKGRFTISRDNAKNTVYLQMNSLKPEDTAVYYCNTDSRVRTWFRAFTYDSWGQGTQVTVSS	low polyreactivity
QVQLVESGGGLVQAGCSLRLSCAASGRTFGSYAMGWYRQAPGKERDLVAGITWRDGSTYYADSVKGRFTISRDNAKNTVYFQMNSLKPEDTAVYYCDKEAVRYYLFGMEYWGQGNQVTVSS	low polyreactivity
QVQLVESGGGLVQAGGRLRLSCAASGFTFNRNAMGWYRQAPGKERELVAAISDSGDNTYYADSVKGRFTISRDNAKNTVYLQMNSLKPEDTAVYYCATSFYGFSYHWFDYWGQGTQVTVSS	low polyreactivity
QVQLVESGGGLVQAGGSLRLSCAASGFTFRYYAMGWYRQAPGKERELVAAISWSGASTYYADSVKGRFTISRDNAKNTVYLQMNSLKPEDTAVYYCAADIPGTYYYWGQGTQVTVSS	high polyreactivity
QVQLVESGGGLVQAGGSLRLSCAASGLIFSRYAMGWYRQAPGKERELVAVISWSGGRTYYADSVKGRFTISRDNAKNTVYLQMNSLKPEDTAVYYCAARSYGGQGVRMDYWGQGTQVTVSS	high polyreactivity
QVQLVESGGGLVQAGGSLRLSCAASGFIFQPYAMGWYRQAPGKERELVAAITSRGGRTYYADSVQGRFTICRDNAKNTVYLQMNSLKPEDTSVYYCNADIYASEYYYWGQGTQVTVSS	low polyreactivity
QGQHVESGGGLVQAGGRLRLSCAASGSTFGDNAMGWSRQAPGKERELVAAISSGSGGSTYYADSVKGRFTISRDNAKNTVYLQMNSLKPEDTAVYYCADVGPYGYYYGHYGYWGQGTQVTVSS	low polyreactivity
QVQLVESGGGLVQAGGSLRLSCAASVRTFYFYTMGWYRQSPGKERELVATIRWSAGSTYYADSVKGRFTISRDNAKNTVYLQMNSLKPEDTAVYYCNADPFVYSSWQYGYWGQGTQVTVSS	high polyreactivity
QVQLVESGGGLVQAGGSLRLSCAASGSTFNRYAMGWYRQAPGKERELVADINSGGRTNYADSVKGRFTISRDNAKNTVYLQMNSLKPEDTAVYFCARRFQYWLSGGQYDYWGQGTQVTVSS	high polyreactivity
QVQLVESGGGLVQAGGSLRISCAASGSTFRGYAMGGYRQAPGKERDLVAAMSSNGDRTFYADSVKGRFTISRDNAMNTVYLLMNSLKAEDTAVYYCNAVYSGSWQLYGYWGQGSQVTVSS	high polyreactivity
QVQLVESGGGLVQAGGSLGLSCAASGRTIDYYALGWYRQAPGKERELVAAITWDGSTYYADSVKGRFTISRDNAKITVYLQMISLKPEVTAVYYCAADFYWYLDLYDFWGQGTQVTVSS	high polyreactivity
